In US20150203583A1:

Target: Fc receptor on monocytes of human PBMC effector cells (human)
Test: cell-based or functional assay

How did the maximal ADCC activity on KIT225/K6 cells, against ZENAPAX DAC and DAC Penzberg turn out when “DAC HYP (daclizumab, humanized IgG1 anti-CD25 monoclonal antibody made by the high yield process in NS0 cells)” was run?
Its maximal ADCC activity on KIT225/K6 cells, against ZENAPAX DAC and DAC Penzberg is 30 to 40 % lower.
